Test results as given in patent US20260209386A1 (MYTHIC THERAPEUTICS, published 2026).

T1: Human PTK7 Protein, His Tag, Acro Biosystems (human, UniProt Q13308 31-704)
T1 construct: Bought recombinant protein; also called CCK4; not shown: His tag
T1 sequence: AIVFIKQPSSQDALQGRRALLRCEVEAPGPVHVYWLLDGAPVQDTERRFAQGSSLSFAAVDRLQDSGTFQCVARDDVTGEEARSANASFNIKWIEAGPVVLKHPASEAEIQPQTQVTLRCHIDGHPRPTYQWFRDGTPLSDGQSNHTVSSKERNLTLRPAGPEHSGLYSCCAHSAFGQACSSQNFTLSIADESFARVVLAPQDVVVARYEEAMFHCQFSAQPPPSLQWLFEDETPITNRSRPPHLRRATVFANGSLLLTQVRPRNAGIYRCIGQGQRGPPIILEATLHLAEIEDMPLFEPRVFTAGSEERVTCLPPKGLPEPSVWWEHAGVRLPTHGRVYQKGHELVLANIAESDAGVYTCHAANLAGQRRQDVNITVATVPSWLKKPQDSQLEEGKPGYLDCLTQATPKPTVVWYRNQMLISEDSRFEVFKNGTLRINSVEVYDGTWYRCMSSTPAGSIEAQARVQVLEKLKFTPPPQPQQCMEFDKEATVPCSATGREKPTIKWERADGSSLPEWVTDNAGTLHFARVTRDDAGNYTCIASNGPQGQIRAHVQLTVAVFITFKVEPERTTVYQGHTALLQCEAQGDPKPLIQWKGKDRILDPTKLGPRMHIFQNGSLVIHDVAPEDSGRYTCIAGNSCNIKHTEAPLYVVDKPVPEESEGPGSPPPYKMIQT


Target: T1, Human PTK7 Protein, His Tag, Acro …
Experiment: BLI, anti-human Fc capture, 50 nM PTK7; 2 = substantially similar binding relative to parent

| Binder | binding result |
| --- | --- |
| MYT11301 (antibody, V domains shown, MYT9792 variant, Ala at VH 28 (H1 03)) VH: EVQLVESGGGLVQPGGSLRLSCTASGIALSRYSMGWVRQAPGKGLEWVGIISYGGSTYYASWAKGRFTISRDTSKNTVYLQMNSLRAEDTAVYFCARVGYPGYSGYGYAFDAFDPWGQGTLVTVSS VL: EIVMTQSPSTLSASVGDRVIITCQSSKSVYNDNWLSWYQQKPGKAPKLLIYGASTLASGVPSRFSGSGSGAEFTLTISSLQPDDFATYYCAGGYSSSSDNGFGQGTKLTVL | binds |
| MYT11306 (antibody, V domains shown, MYT9792 variant, His at VL 26 (L1 03)) VH: EVQLVESGGGLVQPGGSLRLSCTASGIDLSRYSMGWVRQAPGKGLEWVGIISYGGSTYYASWAKGRFTISRDTSKNTVYLQMNSLRAEDTAVYFCARVGYPGYSGYGYAFDAFDPWGQGTLVTVSS VL: EIVMTQSPSTLSASVGDRVIITCQSHKSVYNDNWLSWYQQKPGKAPKLLIYGASTLASGVPSRFSGSGSGAEFTLTISSLQPDDFATYYCAGGYSSSSDNGFGQGTKLTVL | binds |
| MYT11311 (antibody, V domains shown, MYT9792 variant, His at VL 31 (L1 08)) VH: EVQLVESGGGLVQPGGSLRLSCTASGIDLSRYSMGWVRQAPGKGLEWVGIISYGGSTYYASWAKGRFTISRDTSKNTVYLQMNSLRAEDTAVYFCARVGYPGYSGYGYAFDAFDPWGQGTLVTVSS VL: EIVMTQSPSTLSASVGDRVIITCQSSKSVYHDNWLSWYQQKPGKAPKLLIYGASTLASGVPSRFSGSGSGAEFTLTISSLQPDDFATYYCAGGYSSSSDNGFGQGTKLTVL | binds |
| MYT11308 (antibody, V domains shown, MYT9792 variant, His at VL 28 (L1 05)) VH: EVQLVESGGGLVQPGGSLRLSCTASGIDLSRYSMGWVRQAPGKGLEWVGIISYGGSTYYASWAKGRFTISRDTSKNTVYLQMNSLRAEDTAVYFCARVGYPGYSGYGYAFDAFDPWGQGTLVTVSS VL: EIVMTQSPSTLSASVGDRVIITCQSSKHVYNDNWLSWYQQKPGKAPKLLIYGASTLASGVPSRFSGSGSGAEFTLTISSLQPDDFATYYCAGGYSSSSDNGFGQGTKLTVL | binds |

Second part, the binder after the results:

| binding result | Binder |
| --- | --- |
| binds | MYT11313 (antibody, V domains shown, MYT9792 variant, His at VL 33 (L1 10)) VH: EVQLVESGGGLVQPGGSLRLSCTASGIDLSRYSMGWVRQAPGKGLEWVGIISYGGSTYYASWAKGRFTISRDTSKNTVYLQMNSLRAEDTAVYFCARVGYPGYSGYGYAFDAFDPWGQGTLVTVSS VL: EIVMTQSPSTLSASVGDRVIITCQSSKSVYNDHWLSWYQQKPGKAPKLLIYGASTLASGVPSRFSGSGSGAEFTLTISSLQPDDFATYYCAGGYSSSSDNGFGQGTKLTVL |
| binds | MYT11314 (antibody, V domains shown, MYT9792 variant, His at VL 34 (L1 11)) VH: EVQLVESGGGLVQPGGSLRLSCTASGIDLSRYSMGWVRQAPGKGLEWVGIISYGGSTYYASWAKGRFTISRDTSKNTVYLQMNSLRAEDTAVYFCARVGYPGYSGYGYAFDAFDPWGQGTLVTVSS VL: EIVMTQSPSTLSASVGDRVIITCQSSKSVYNDNHLSWYQQKPGKAPKLLIYGASTLASGVPSRFSGSGSGAEFTLTISSLQPDDFATYYCAGGYSSSSDNGFGQGTKLTVL |
| binds | MYT11312 (antibody, V domains shown, MYT9792 variant, His at VL 32 (L1 09)) VH: EVQLVESGGGLVQPGGSLRLSCTASGIDLSRYSMGWVRQAPGKGLEWVGIISYGGSTYYASWAKGRFTISRDTSKNTVYLQMNSLRAEDTAVYFCARVGYPGYSGYGYAFDAFDPWGQGTLVTVSS VL: EIVMTQSPSTLSASVGDRVIITCQSSKSVYNHNWLSWYQQKPGKAPKLLIYGASTLASGVPSRFSGSGSGAEFTLTISSLQPDDFATYYCAGGYSSSSDNGFGQGTKLTVL |
| binds | MYT11304 (antibody, V domains shown, MYT9792 variant, His at VL 24 (L1 01)) VH: EVQLVESGGGLVQPGGSLRLSCTASGIDLSRYSMGWVRQAPGKGLEWVGIISYGGSTYYASWAKGRFTISRDTSKNTVYLQMNSLRAEDTAVYFCARVGYPGYSGYGYAFDAFDPWGQGTLVTVSS VL: EIVMTQSPSTLSASVGDRVIITCHSSKSVYNDNWLSWYQQKPGKAPKLLIYGASTLASGVPSRFSGSGSGAEFTLTISSLQPDDFATYYCAGGYSSSSDNGFGQGTKLTVL |
